Measurements reported in the nanobody polyreactivity screen of Harvey et al. (2022).

Assay: yeast display, Sf9 membrane polyspecificity reagent, FACS + sequencing; frameworks hold sequencing errors
In short: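 After 36–48 hours of galactose induction, yeast (Saccharomyces cerevisiae BJ5465) displaying a synthetic nanobody library were stained at 4 °C for 1 hour with 10% biotinylated, detergent-solubilized Sf9 membrane reagent. Streptavidin microbeads enriched the stained cells before FACS sorting into low and high (top ~1%) gates on anti-HA and streptavidin fluorescence. Each clone's polyreactivity label reflects its gate of origin.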

Sequence	polyreactivity (PSR sort gate)
QVQLVESGGGLVQAGGSLRLSCAASGRTFYIYAMGWYRQAPGKERELVAAITWSGGSSTYYADSVKGRFTISRDNAKNTVYLQMNSLKPEDTAVYYCAAETHYYWYEQYDYWGQGTQVTVSS	high polyreactivity
QVQLVESGGGLVQAGGSLRLSCAASGRTFTSYAMGWYRQAPGKERELVAAISSSGSSTYYADSVKGRFTISRDNAKNTVYLQMNSLKPEDTAVYYCAVGGSFRYRVQYDYWGQGTQVTVSS	high polyreactivity
QVQLVESGGGLVQAGGSLRLSCAASGIILREYTMGWYRQAPGKERELVAAISGSGGSTYYADSVKGRFTISRDNAKNTVYLQMNSLKPDDTAVYYCNAVIAAKARDAVVGSGMDYWGQGTQVTVSS	high polyreactivity
QVQLVESGGGLVQAGGSLRLSCAASGSTFYRNTMGWYRQAPGKERELVAAISRTGASTHYADSVKGRFTISRDNAKNTVYLQMNSLKPEDTAVYYCNAVPAIGKYYGGGYWGQGTQVTVSS	high polyreactivity
QVQLVESGGGLVQAGGSLRISCAASGLTFGRYAMGWYRQAPGKEMELVAAITGSGGRTYYADSVKGRFTISRDNAKNNVYLQINSLKQEDTAVYYCATEASPRGYAEYDYWGQGTQVTVSS	high polyreactivity
QVQLVESVGGLVQAGGSLRLSCAASGFIFTLYTMGWYRHAPGKERELVADIDKNGSTYYADSVKGRFTISRDNAKITVYLRMYSLKPEDTAFYYCAADDRYRGNREDYWGQGTQVTVSS	low polyreactivity
QVQLVESGGGLVQAGGSLRLSCAASGSTFAYYDMGRYRPAPGKERELVAAITIDGRTSYADSVKGRFTISRDNAMNTVYLQMNSLKPEDTAVYYCNTEIRLSKYDYWGQGTQVTVSS	low polyreactivity
QVQLVESGGGLVQAGGSLRLSCAASGLIFSSYAMGWYSQAPGKERELVAAITSGGNTNYADSVKGRFTISRDNAKNTVYLHMNSLKPEDTAVYYCSAVWWTYVAAPGYDYWGQGTQVTVSS	low polyreactivity
QVQLVESGGGLVQAGGSLLISCAASGRIFYYNTMGWSRQEPGKESELVAAITTNGGSTYYADSVKGRFTISRDNAKITVYLQMNSLNPEDTAVYYCNRDRYPYYSAYNYWGQGTQVTVSS	low polyreactivity
QVQLVESGGGLVQAGGRLRLSCAASGFIFPLYAMGWYRQAPGKERELVAAIRASSGSTYYADSVKGRFTISRDNAKNSVYLQMNSLKPEDTAVYYCNARQYVWYPYEYWGQGTQVTVSS	high polyreactivity
QVQLVESGGGLVQAGGSLRLSCAASGLIFPRYAMGWYRQAPGKVSELVAAITWSGGSTFYADSVKGRFTISRDTAKNTVYLQMNSLKPEDTAVYYCAAQDASERTYGYDGYYYWGQGTQVTVSS	low polyreactivity
QVQLVESGGGLVQAGGSLRLSCAASGRIFRWNAMGWYRQAPGKERELVAAISRSGGSTYYADSVKRRFTISRDNAKNTVYLQMNSLKPEDTAVYYCNTRFSTFTAPGYYYWGQGTQVTVSS	high polyreactivity
QVQLVESGGGLVQAGGSLRLSCPASGSTIDPNARGWYRQAPGNERELVAAISYTGGRTYYADSVKGRFTISRDNAKNTVYLQMNSLKPEDTAVYYCAVLVVGATTQDEPYFSGVEHDYWGQGTQVTVSS	low polyreactivity
QVQLVESGGGLVQAGGSLRLSCAASGRTFHANAMGWYRQAPGKERELVAAISYRTGSTYYADSVKGRFTISRDNAKNTVYLQMNILKPDDTAVYYCDVDTRYGYGYWGQGTQVTVSS	high polyreactivity
QVQLVESGGGLVQAGGSLRLSCAASGFIFQWYAMGWYRQAPGKERELVAAISIGDSTYYADSVKGRFTISRDNAKNTVYLQMNSLKPADTAVYFCNADPWGYYSVIPLYEYDYWGQGTQVTVSS	low polyreactivity
QVQLVESGGGLVQAGGSLRLSCAASGSTFYFNAMGWYRQAPGKERELVAGISSGGSTYYADSVKGRFTISRDNAKNTVYLQMNSLKPEDTAVYYCAADSDTFYYTGYDYDYWGQGTQVTVSS	low polyreactivity
QVQLVESGGGLVQAGGSLRLSCAASGRILKRNAMGWYRQSPGKERELVAAISWSTGTTYYADSVKGRFTISRDNAKNTVYLQMNSLKPEDTAVYYCAKQIVSGRRVDRNDYWGQGTQVTVSS	low polyreactivity
QVQLVESGGGLVQAGGSLRLSCAASARIFPVYAMGWYRQAPGKERELVAAISRSAGRTYYADSVKGRFTISRDNAKNTVYLQMNRLKPEDTAVYFCAAQSPYGYDYWGQGTQVTVSS	low polyreactivity
QVHLVESGGGLVQAGGSLRLSCASSGTTFRYYAMGCYRQAPGKERELVAAITYRGGRTYYADSVKGRFTISRDNPKNTVYLQMNSLKPEDTAVYYCAGKSGGDSMDSWGQGTQVTVSS	low polyreactivity
QVQLVESGGGLVQAGGSLSLSCAASGRTFLYNAMGWYRQAPGKERELVAGITQSGSSTYYADSVKGRFTISRDNAKNTVYLQMNSMKPEDTAVYYCAKVLYRRGYKFDYWGQGTQVTVSS	low polyreactivity
QVQLVESGGGLVQAGGSLRLSCAASGFNFSYYAMGWYRQAPGKERELVAAINSGGVRTYYADSVKGRFTISRDNAKNTVYLQMNSLKPEDTAVYYCAARRHDSRYQYDYWGQGTQVTVSS	high polyreactivity
QDQLVESVGGLVQAGGSLRLSCAASGSTFTSNAMGWYRQAPGKERELVAVITIGGSTNYADSVKGRFTISLDNAKNSVYLQMNSLKPEDTAVYYCAAELFPLQHFWGAYATRRYDYWGQGTQVTVSS	low polyreactivity

Sequence	polyreactivity (PSR sort gate)
QVQLVESGGGLVQAGGSRRLTCAASGSIFFYNAMGWYRQATGKERELVAAISSATSTYYADSVKGRFTISRDNAMISVYVHMNSLTEEDTAVYYCAADFSDGYFWYDYWGQGTQVTVSS	high polyreactivity
QVQLVEAGGGLVHAGGSLRLSCAASGRIFLAYAMGCYRQAPGKEMELVATIRSGGSTTYADSVKGRFTISRDNAKNSVYLQMNSLKTEDTAVYYCARRYQRKKPVFPHSQGAYDYWGQGTQVTVSS	low polyreactivity
QVQLEESGGGLVQAGGSLRLSCASYGSTFTYNAMGLYIQAPAKERELVAVIRPGGTTNYADSVKGRFTISRDNAKNSVYLQMNSLKPVDTAVYYCAADVRRYDGYDYWGQGTQVTVSS	low polyreactivity
QVQLVESGGGLVQAGGSLRLSCAASGNTFKGYAMGWYRQAPGKERELVAAISWSGSSTYYADSVKGRFTISRDNAKNTVYVQMISLKPEDTAVYYCNRKYLGRYASVYGYGYWGQGTQVTVSS	high polyreactivity
QVQLVESGGGLVQAGGSLRLSCAASGRTFYYYTRGWYRQAPGKERELVAAISRRGGRTYYADSVKGRFTISRDNAKNTVYLQMNSLKPEDTAVYNCAKETPHCPGLGGYDYWGQGTQVTVSS	high polyreactivity
QVQLVESGGRLVQPGGSLRLSCAASGRTFVLNAIGWYRQAPGKEREFVAAISWGGVRTDYADSVKGRFTISRDNAKNTVYLQMNSLKPEDTAVYYCATSGSRYRRYDYWGQGTQVTVSS	high polyreactivity
QVQLVESGGGLVQAGGSLRLSCGASGSTFWYYAMGWYRPAPGKERELVAAISSRGGSTYYADSVKGRFTISRDKAKNTVYFQLNSLKPEDTAVYYCAILGSYGGGQRRKYDSWGQGTQVTVSS	high polyreactivity
QVQLVESGGGLVQAGGSLRLSCAASGYTFKTNDMGWSRQAPGKEREFVAAIDSGGNTYYADSVKGRFTISRDNAKNTVYLQMNSLKPEDTAVYYCAAYRDYQYDYWGQGTQVTVSS	low polyreactivity
QVQLVESGVGLVKAGGSLRLSCAASGSTFRGYAMGWYRQAPGKERELVAAITYISDTTNYADSVKGRFTISRDNAKNTVYLQMNSLKPDDTAVYYCNAYYDGVWRYTSQETGDHWGQGTQVTVSS	low polyreactivity
QVQLVESGRGLVQAGGSLRLSCASSGSTCVRNVMGWYRQAPGKERELVAAISRRGGGTYYADSVKGRFTISRDNAKNTVYLQMNSLKPEDTAVYYCATGSIAAGHYAYNYWGQGTQVTVSS	high polyreactivity
QVQLVESGGGLVQAGGSLRLSCAASGSIFSTYTMGWYRQAPGKERELVATIRLRGGSTYYADSVKGRFTISRDNAKNTVYLQMNSLKPEDTAVYYCNKAYRYYQYGYWGQGTQVTVSS	high polyreactivity
QFQLVESGGGLVQAGGSLRLSCAASGSIFPNYAMGWYRQAPGKDRELVAVITQRGGRTYYADSVKGRFTISRDNAKNTVYLQMNSLKPEDTAVYYCAASYRGVPEYDSWGQGTQVTVSS	low polyreactivity
QVQLVESGGGLVQAGGSLRLSCAASGRIFSTYTMGWYSQAPGKDRELVARSSWSAGRTYYADSVKGRFTISRDNAKNSVYLQMNSLKPEETAVYYCAADGYTQRGYDYWGQGTQVTVSS	high polyreactivity
QVQLVESGGGLVQAGGSLRLSCAASGFTFRYNAMGWYRQAPGKERELVAAISRSGGRTYYADSVKGRFTIARDNAKNTVYLQMNSLKPEDTAVYYCAAVAARITGFGYWGQGTQVTVSS	high polyreactivity
QVQLVESGGGIVQAGGSLRLSCAASGFIFSYYVMGWYRQAPGKEREFVAAITYSGTYTYYADSVKGRFTISRDNAKNTVYLQMNSLKPEDTAVYYCAAYSPRYNAHDYWGQGTQVTVSS	high polyreactivity
QVQLVASGGGLVQAGGSLRLSCAASGRIFDAYAMGWYRQAPGKERELVAAIDFSAGSTYYADSVKGRFTISRDNAQNTVYLQMNSLKPEDTAVYYCATRLGVLYDCWGQGTQVTVSS	low polyreactivity
QVQIVESGGGLVQAGGSLRLSCAASGSTFAYYTMGWYRQAPGKDRELVAAISASGGSTYYADSVKGRFTISRDNGKNTVYLQMNCLKPEVSEVYYCNAESYLTGWWVDYWGQGSQVTVSS	low polyreactivity
QVQLVESGGGLVQAGGSLRLSSAASGSTFYLNTMGWYRQAPGKEREFVAAISARGGSTYYADSVKGRFTISRDNAKNTVYLQMNSLKPEDTAVYYCAAKFVRFYWNYDYWGQGTQVTVSS	high polyreactivity
QVQLVESGGGLVQAGGSLRLSCAASGSIFGINAMGWYRQAPGKERELVAGISSRGGSTYYADSVKGRFTISRDNAKNTVYLQMNSLKPEDTAVYYCAKRYGRRYGRLHDYWGQGTQVTVSS	high polyreactivity
QVQLVESGGGLVQAGGSLRLSCAASGITFVWYDMGGYRQAPGKEREFVAVISKRGGSTYYADSVKGRFTISRDNAKNTVYLQMNSLKPEDTAVYYCAASYNLYRRYYYWGQGTQVTVSS	high polyreactivity
QVQLQESGGGLVQAGGSLRLSCAASGYISFSGYMGRYRQAPGKEREFVDSITPGRSTYYADSVKGRFTISRDNAENTVYLQMNSLQPEDTAVDYCAADDSRTEQHAYWGQGTQVTVRS	high polyreactivity
